Source: US20220010021A1 (Sanofi, published 2022)

Experiments:
[1] = target: human FGFR1c/KLB cell surface receptor complex on iLite FGF21 reporter cells (human, UniProt P11362 22-822; Q86Z14 1-1044); experiment: cell-based or functional assay; as to Mean E max (%): reference of the scale not given here
human beta-Klotho (KLB) = target: T1, human beta-Klotho (KLB) (human, UniProt Q86Z14 53-997); experiment: BLI off-rate screen (Octet), Ab captured via Fc;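 also: antibody supernatants applied at 25 µg/mL, dissociation monitored over 1800 s in D-PBS with 0.1% BSA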
T1 construct: also called human KLB
T1 sequence (looked up): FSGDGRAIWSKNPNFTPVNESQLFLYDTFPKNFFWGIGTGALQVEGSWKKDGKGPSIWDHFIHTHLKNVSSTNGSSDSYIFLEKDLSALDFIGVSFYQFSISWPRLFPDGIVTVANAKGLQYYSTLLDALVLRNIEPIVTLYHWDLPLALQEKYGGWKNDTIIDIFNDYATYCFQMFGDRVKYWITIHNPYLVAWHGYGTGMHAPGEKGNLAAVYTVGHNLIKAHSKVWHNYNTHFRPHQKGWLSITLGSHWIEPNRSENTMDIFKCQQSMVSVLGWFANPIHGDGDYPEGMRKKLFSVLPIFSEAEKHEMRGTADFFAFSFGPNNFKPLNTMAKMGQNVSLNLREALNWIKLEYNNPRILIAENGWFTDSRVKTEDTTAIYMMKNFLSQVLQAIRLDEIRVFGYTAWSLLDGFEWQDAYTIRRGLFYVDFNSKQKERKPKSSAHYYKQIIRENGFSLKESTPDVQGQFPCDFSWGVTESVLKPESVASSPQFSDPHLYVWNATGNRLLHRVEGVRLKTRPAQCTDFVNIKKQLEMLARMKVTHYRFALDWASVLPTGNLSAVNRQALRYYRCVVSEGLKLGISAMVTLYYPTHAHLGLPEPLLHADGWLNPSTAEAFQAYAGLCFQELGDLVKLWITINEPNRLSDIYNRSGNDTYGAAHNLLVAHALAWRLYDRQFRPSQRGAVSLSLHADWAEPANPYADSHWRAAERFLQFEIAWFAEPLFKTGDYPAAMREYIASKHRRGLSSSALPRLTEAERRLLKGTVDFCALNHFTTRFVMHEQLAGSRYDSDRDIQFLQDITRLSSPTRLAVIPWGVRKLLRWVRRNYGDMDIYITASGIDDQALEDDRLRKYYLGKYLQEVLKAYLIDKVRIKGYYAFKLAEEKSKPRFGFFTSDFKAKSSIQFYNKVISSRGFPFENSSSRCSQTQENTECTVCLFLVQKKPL

human FGFR1c/KLB cell surface receptor complex on iLite FGF21 reporter cells, sequence (P11362 22-822, chain 1 of 2): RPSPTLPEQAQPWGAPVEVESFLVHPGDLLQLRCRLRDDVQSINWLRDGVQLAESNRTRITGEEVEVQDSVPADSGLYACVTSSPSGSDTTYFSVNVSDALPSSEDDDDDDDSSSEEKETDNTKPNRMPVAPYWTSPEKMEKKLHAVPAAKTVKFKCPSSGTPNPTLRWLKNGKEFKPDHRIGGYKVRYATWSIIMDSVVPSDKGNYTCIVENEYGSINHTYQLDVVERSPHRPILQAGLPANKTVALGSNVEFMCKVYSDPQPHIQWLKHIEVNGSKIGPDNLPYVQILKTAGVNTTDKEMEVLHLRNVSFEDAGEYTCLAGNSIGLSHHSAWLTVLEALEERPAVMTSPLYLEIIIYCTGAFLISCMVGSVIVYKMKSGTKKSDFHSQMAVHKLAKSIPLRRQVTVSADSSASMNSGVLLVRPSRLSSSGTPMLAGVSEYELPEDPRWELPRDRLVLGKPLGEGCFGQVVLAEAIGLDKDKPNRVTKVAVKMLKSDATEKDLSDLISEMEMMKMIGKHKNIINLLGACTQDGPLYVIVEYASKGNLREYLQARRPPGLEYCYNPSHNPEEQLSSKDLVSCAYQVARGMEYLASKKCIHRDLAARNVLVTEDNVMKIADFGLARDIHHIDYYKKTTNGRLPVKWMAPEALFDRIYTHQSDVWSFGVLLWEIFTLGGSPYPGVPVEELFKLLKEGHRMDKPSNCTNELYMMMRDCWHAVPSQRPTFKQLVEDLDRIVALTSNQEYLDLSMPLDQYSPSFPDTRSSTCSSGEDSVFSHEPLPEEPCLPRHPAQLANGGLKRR
human FGFR1c/KLB cell surface receptor complex on iLite FGF21 reporter cells, sequence (Q86Z14 whole entry, chain 2 of 2): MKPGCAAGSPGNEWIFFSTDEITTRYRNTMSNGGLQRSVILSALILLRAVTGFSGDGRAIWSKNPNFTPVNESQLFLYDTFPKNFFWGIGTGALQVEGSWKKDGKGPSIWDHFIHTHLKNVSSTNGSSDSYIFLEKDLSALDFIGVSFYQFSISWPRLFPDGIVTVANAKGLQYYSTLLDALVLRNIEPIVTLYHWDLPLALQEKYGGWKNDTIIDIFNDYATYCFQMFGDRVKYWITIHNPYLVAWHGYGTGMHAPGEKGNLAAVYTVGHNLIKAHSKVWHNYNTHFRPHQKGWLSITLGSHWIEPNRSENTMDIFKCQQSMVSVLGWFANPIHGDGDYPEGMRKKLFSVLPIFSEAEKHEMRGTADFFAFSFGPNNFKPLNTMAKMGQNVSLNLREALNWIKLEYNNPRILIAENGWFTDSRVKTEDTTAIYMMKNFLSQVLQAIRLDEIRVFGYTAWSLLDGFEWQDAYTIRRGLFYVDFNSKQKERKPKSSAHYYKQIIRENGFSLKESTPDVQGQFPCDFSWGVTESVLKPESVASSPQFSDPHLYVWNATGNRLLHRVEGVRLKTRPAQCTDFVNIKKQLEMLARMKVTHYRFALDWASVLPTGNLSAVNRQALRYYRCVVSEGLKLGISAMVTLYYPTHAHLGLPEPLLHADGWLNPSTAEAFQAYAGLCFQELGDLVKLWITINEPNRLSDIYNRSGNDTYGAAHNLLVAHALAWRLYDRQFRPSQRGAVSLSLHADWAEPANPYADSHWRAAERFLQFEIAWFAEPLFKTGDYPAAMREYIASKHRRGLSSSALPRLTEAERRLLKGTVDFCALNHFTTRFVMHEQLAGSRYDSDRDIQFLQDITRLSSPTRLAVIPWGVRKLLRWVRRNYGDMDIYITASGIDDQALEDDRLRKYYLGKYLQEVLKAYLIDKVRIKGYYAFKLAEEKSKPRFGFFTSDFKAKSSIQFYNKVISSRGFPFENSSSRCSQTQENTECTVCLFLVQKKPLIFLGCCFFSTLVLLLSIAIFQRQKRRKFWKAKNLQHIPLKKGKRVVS

Row | Binder | Mean E max (%) [1] [%] | Mean EC50 [1] [nM] | koff (human beta-Klotho (KLB)) [s⁻¹]
1 | 16H7 variant, light chain P54R (antibody, human IgG4 S228P, lambda, V domains shown, IgG4 backbone) VH: not shown VL: SYVLTQPPSVSVAPGQTARITCGGNNIGSESVHWYQQKPGQAPVLVVYDDSDRRSGIPERFSGSNSGNTATLTISRVEAGDEADYYCQVWDGNSDHVVFGGGTKLTVLG | 104 | 0.111 | 0.00011
2 | 16H7 variant, light chain P54V (antibody, human IgG4 S228P, lambda, V domains shown, IgG4 backbone) VH: not shown VL: SYVLTQPPSVSVAPGQTARITCGGNNIGSESVHWYQQKPGQAPVLVVYDDSDRVSGIPERFSGSNSGNTATLTISRVEAGDEADYYCQVWDGNSDHVVFGGGTKLTVLG | 109 | 0.11 | 4.1e-05
3 | 16H7 variant, light chain P54S (antibody, human IgG4 S228P, lambda, V domains shown, IgG4 backbone) VH: not shown VL: SYVLTQPPSVSVAPGQTARITCGGNNIGSESVHWYQQKPGQAPVLVVYDDSDRSSGIPERFSGSNSGNTATLTISRVEAGDEADYYCQVWDGNSDHVVFGGGTKLTVLG | 102 | 0.103 | 7.9e-05
4 | 16H7 variant, light chain R53C (antibody, human IgG4 S228P, lambda, V domains shown, IgG4 backbone) VH: not shown VL: SYVLTQPPSVSVAPGQTARITCGGNNIGSESVHWYQQKPGQAPVLVVYDDSDCPSGIPERFSGSNSGNTATLTISRVEAGDEADYYCQVWDGNSDHVVFGGGTKLTVLG | 107 | 0.147 | 0.00044
5 | 16H7 variant, light chain P54T (antibody, human IgG4 S228P, lambda, V domains shown, IgG4 backbone) VH: not shown VL: SYVLTQPPSVSVAPGQTARITCGGNNIGSESVHWYQQKPGQAPVLVVYDDSDRTSGIPERFSGSNSGNTATLTISRVEAGDEADYYCQVWDGNSDHVVFGGGTKLTVLG | 108 | 0.113 | 0.00018
6 | 16H7 variant, light chain Q88G (antibody, human IgG4 S228P, lambda, V domains shown, IgG4 backbone) VH: not shown VL: SYVLTQPPSVSVAPGQTARITCGGNNIGSESVHWYQQKPGQAPVLVVYDDSDRPSGIPERFSGSNSGNTATLTISRVEAGDEADYYCGVWDGNSDHVVFGGGTKLTVLG | 110 | 0.129 | 0.00017
7 | 16H7 variant, light chain Q88A (antibody, human IgG4 S228P, lambda, V domains shown, IgG4 backbone) VH: not shown VL: SYVLTQPPSVSVAPGQTARITCGGNNIGSESVHWYQQKPGQAPVLVVYDDSDRPSGIPERFSGSNSGNTATLTISRVEAGDEADYYCAVWDGNSDHVVFGGGTKLTVLG | 108 | 0.133 | 0.00011
8 | 16H7 variant, light chain P54W (antibody, human IgG4 S228P, lambda, V domains shown, IgG4 backbone) VH: not shown VL: SYVLTQPPSVSVAPGQTARITCGGNNIGSESVHWYQQKPGQAPVLVVYDDSDRWSGIPERFSGSNSGNTATLTISRVEAGDEADYYCQVWDGNSDHVVFGGGTKLTVLG | 98 | 0.091 | 0.00017
9 | 16H7 variant, light chain Q88L (antibody, IgG4, V domains shown, IgG4 backbone; copies: 2 + 2) VH: not shown VL: SYVLTQPPSVSVAPGQTARITCGGNNIGSESVHWYQQKPGQAPVLVVYDDSDRPSGIPERFSGSNSGNTATLTISRVEAGDEADYYCLVWDGNSDHVVFGGGTKLTVLG | 107 | 0.134 | 9.9e-05
10 | 16H7 variant, light chain P54Y (antibody, human IgG4 S228P, lambda, V domains shown, IgG4 backbone) VH: not shown VL: SYVLTQPPSVSVAPGQTARITCGGNNIGSESVHWYQQKPGQAPVLVVYDDSDRYSGIPERFSGSNSGNTATLTISRVEAGDEADYYCQVWDGNSDHVVFGGGTKLTVLG | 110 | 0.15 | 8.3e-05
11 | 16H7 variant, light chain R53A (antibody, human IgG4 S228P, lambda, V domains shown, IgG4 backbone) VH: not shown VL: SYVLTQPPSVSVAPGQTARITCGGNNIGSESVHWYQQKPGQAPVLVVYDDSDAPSGIPERFSGSNSGNTATLTISRVEAGDEADYYCQVWDGNSDHVVFGGGTKLTVLG | 89 | 0.132 | 0.0002
12 | 16H7 variant, light chain Q88M (antibody, IgG4, V domains shown, IgG4 backbone; copies: 2 + 2) VH: not shown VL: SYVLTQPPSVSVAPGQTARITCGGNNIGSESVHWYQQKPGQAPVLVVYDDSDRPSGIPERFSGSNSGNTATLTISRVEAGDEADYYCMVWDGNSDHVVFGGGTKLTVLG | 90 | 0.104 | 9.9e-05
